Data as given in PMC2328253.

Biological target: T1, His-RosE (Salmonella enterica serotype Typhimurium) (UniProt Q8ZK37)
T1 sequence: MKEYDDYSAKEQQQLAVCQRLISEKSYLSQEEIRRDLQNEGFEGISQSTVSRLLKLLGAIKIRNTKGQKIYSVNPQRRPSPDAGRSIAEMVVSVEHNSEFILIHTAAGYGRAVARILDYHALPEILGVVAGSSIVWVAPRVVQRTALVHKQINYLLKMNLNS
Test: EMSA

TAAAAAGTATTTCTTTGATGATTATTCTTAAATTACGATCATAATCATCGATCGTATCGATCTATTTTTATTGTTTTAATTTGAATAAGAATTTTCTTACAACTGATTAGGCATTAGCTGAAATCAATATTTTTCGATGGAAAGTTCAGG (double strand) [stdA upstream region 1]
binding: no binding
